Laboratory results as given in patent publication US20070203188, “Low molecular weight Myc-Max inhibitors” (University of Pittsburgh, published 2007).

Target: c-Myc353-439 (bHLH-LZ)/Max(S) heterodimer (Homo sapiens, UniProt P01106;P61244-2 P01106:368-454,P61244-2:1-151)
Assay: EMSA; 60 nM each protein, 10 nM DNA; 1xPBS pH 7.3, 1 mM EDTA, 0.1% NP40, 5% glycerol, 1 mM DTT, 0.4 mg/mL BSA, 25 C; binding inhibited dose-dependently by 10058-F4 and analogs
Conditions: tags: c-Myc: His6 cleaved by TEV, GGCD C-terminal extension, label: 5'-HEX on one strand
Protocol: Electrophoretic mobility shift Assays (EMSAs). Experiments were performed on 8% polyacrylamide:bis-acrylamide (80:1) gels in 0.5×TBE. Binding reactions were prepared in a buffer consisting of 1×PBS (pH 7.3); 1 mM EDTA; 0.1% NP40; 5% glycerol; 1 mM dithiothreitol; and 0.4 mg/mL BSA. A 22 base-pair E-box-containing double-stranded DNA oligonucleotide labeled on one strand with hexachlorofluoresceine (HEX) consisted of the following sequence:
The second method used to gauge the effects of 10058-F4 and its analogs on c-Myc-Max complexes relied on the use of a simple, three component electrophoretic mobility shift assay (EMSA). For this purpose, a recombinant c-Myc peptide, which encompasses the bHLH-LZ domain (c-_{Myc353-439}), together with the full-length His₆-tagged 151 amino acid isoform of Max [designated Max(S)] (Zhang H, et al. J Biol Chem 1997; 272; 17416-24 and Prochownik E V, et al. Proc Natl Acad Sci USA 1993; 90:960-4) were incubated in increasing concentrations of each relevant compound. The ability of the resultant heterodimer to bind a double-stranded target oligonucleotide containing a consensus E-box motif was then assessed by PAGE. […]

c-Myc353-439 (bHLH-LZ)/Max(S) heterodimer, sequence (P01106 368-454, chain 1 of 2): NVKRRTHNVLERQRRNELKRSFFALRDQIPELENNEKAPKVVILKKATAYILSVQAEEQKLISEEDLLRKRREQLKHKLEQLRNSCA
c-Myc353-439 (bHLH-LZ)/Max(S) heterodimer, sequence (P61244 other isoform, or with tags, fused parts or gaps, chain 2 of 2): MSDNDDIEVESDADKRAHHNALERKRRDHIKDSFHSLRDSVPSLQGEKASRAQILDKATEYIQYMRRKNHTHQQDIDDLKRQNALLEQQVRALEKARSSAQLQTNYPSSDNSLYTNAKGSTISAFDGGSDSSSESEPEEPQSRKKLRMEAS

B1: E-box 22-mer duplex (dsDNA)
DNA 1: CACCCGGTCACGTGGCCTACAC
DNA 2: GTGTAGGCCACGTGACCGGGTG
Q: Does B1 bind?
A: binds
